From PMC9605988, “Juxtaposition of Bub1 and Cdc20 on phosphorylated Mad1 during catalytic mitotic checkpoint complex assembly” (Nature Communications, 2022)
Where two headings read alike, the source gives them in different places. One block for each molecule: values may come before it.

Columns and labels:
[1] = molecular target: Mad1^CTD phosphorylated at Thr716 (pMad1^CTD) (UniProt Q9Y6D9); assay: SEC-MALS; Superdex 75 or Superdex 200 Increase 10/300 GL, 0.5 ml/min; about 100 μl at ~3.0 mg/ml; Mad1^CTD dimer to Cdc20^N 1:1.2; proteins also run alone
[2] = molecular target: Mad1^CTD phosphorylated at Thr716 (pMad1^CTD) (UniProt Q9Y6D9); assay: AUC; sedimentation equilibrium; 20 mM HEPES pH 7.5, 100 mM NaCl, 1 mM TCEP; 20 °C; 10,200, 12,200 and 21,000 rpm; up to four-fold molar excess of Cdc20^N
[3] = molecular target: T1, preformed AF488-Bub1^CD1:Mad1^CTD complex (Mad1^CTD unphosphorylated) (UniProt Q9Y6D9 597-718, Aurora Fluor 488 (AF488) on the N-terminal Cys; phosphoserine (pSer459); phosphothreonine (pThr461)); assay: fluorescence polarisation; fluorescence anisotropy; Cdc20^N twofold series (100 μM to 6 nM, mixed 1:1) titrated into preformed AF488-Bub1^CD1:Mad1^CTD (20 nM: 2.1 µM); 25 mM HEPES pH 7.75, 1 mM TCEP, 100 mM NaCl, 0.05% Tween-20; 25 °C; conditions: both partners purified
T1 construct: Mad1 C-terminal domain (Mad1^CTD), residues 597-718; as m1; added N-terminal Cys (carries AF488) and Trp; as m7; Bub1 conserved domain 1 (CD1) peptide; also called Mad1^CTD:AF488-Bub1^CD1 complex; source: mixed from purified Mad1^CTD and synthetic peptide (20 nM: 2.1 µM); copies: 2 + 1
T1 sequence 1: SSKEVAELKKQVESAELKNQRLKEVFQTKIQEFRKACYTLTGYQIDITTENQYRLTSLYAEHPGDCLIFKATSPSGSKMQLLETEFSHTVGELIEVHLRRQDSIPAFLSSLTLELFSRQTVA
T1 sequence 2: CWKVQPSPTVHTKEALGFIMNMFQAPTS

[4] = molecular target: T2, preformed AF488-Bub1^CD1:pMad1^CTD complex (Mad1^CTD phosphorylated at Thr716) (UniProt Q9Y6D9 597-718, phosphothreonine at 716 (pThr716) | Aurora Fluor 488 (AF488) on the N-terminal Cys; phosphoserine (pSer459); phosphothreonine (pThr461)); assay: as above; conditions: both partners purified
T2 construct: Mad1 C-terminal domain (Mad1^CTD), residues 597-718; as m2; added N-terminal Cys (carries AF488) and Trp; as m7; Bub1 conserved domain 1 (CD1) peptide; source: mixed from purified pMad1^CTD and synthetic peptide (20 nM: 2.1 µM); copies: 2 + 1
T2 sequence 1: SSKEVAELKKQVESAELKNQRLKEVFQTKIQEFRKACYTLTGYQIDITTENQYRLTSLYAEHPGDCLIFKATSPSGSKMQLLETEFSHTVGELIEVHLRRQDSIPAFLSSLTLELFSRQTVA
T2 sequence 2: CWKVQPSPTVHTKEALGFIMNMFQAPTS

[5] = molecular target: T3, Mad2 R133A prepared in the open state for NMR (O-Mad2) (UniProt Q13257 1-205, R133A); assay: NMR time course (1H,15N HSQC); 100 μM 15N O-Mad2 R133A with 200 μM Cdc20^MIM peptide; 25 °C; Trp75 and Trp167 indole resonances as reporters; conditions: both partners purified
T3 construct: Mad2; also called O-Mad2 with an R133A mutation; source: 15N-labelled in M9 minimal media
T3 sequence (Q13257 whole entry R133A): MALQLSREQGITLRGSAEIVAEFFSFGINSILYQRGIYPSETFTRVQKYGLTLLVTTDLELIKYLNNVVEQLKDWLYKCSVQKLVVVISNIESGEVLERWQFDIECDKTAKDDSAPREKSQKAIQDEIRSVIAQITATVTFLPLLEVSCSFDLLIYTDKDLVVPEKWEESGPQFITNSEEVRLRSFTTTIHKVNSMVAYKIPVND

[6] = molecular target: the molecule itself; assay: SEC-MALS; Superdex 75 or Superdex 200 Increase 10/300 GL, 0.5 ml/min; about 100 μl at ~3.0 mg/ml; Mad1^CTD dimer to Cdc20^N 1:1.2; proteins also run alone
[7] = system: Bub1CD1; assay: Binding of Mad1CTD mutants to Bub1CD1; conditions: fluorescence anisotropy therefore not usable for this mutant
Experimental: All reactions were completed in a buffer of 25 mM HEPES pH 7.75, 1 mM TCEP, 100 mM NaCl, 0.05% (v/v) Tween-20. […] Measurements were performed with a PheraStar plate reader FSX plate reader (BMG Labtech) using an optic module for λex = 485 nm, λem = 520 nm. Reactions were carried out in a total volume of 40 μl at 25 °C in a black, flat-bottom, non-binding surface 384-well plate (Corning). All experiments were performed as technical triplicates and data were analysed in PRISM 9.3.1 (GraphPad Software).

[8] = system: spindle assembly checkpoint; conditions: cited from earlier work
Excerpt: (§1) In this predicted model, the Cdc20^N α1 helix lies diagonally across the Mad1^CTD coiled-coil with its N-terminus close to the Mad1 RLK motif of one monomer, and the C-terminus contacting the head domain β-sheet of the adjacent monomer, in a manner that strikingly mimics the Bub1^CD1:Mad1^CTD interaction (Fig. 4d). Similar to Bub1^CD1, the interaction of Cdc20 α1 with Mad1^CTD would largely be driven by hydrophobic interactions (Fig. 4e). This model predicts that Gln3 and Glu7, and Asp9 of Cdc20 α1 interact with Arg617 and Lys619, respectively of the Mad1^CTD RLK motif (Fig. 4d). This is consi ...

[9] = system: Bub1CD1; conditions: cited from earlier work
Excerpt: as §1

- stoichiometry N (Cdc20^N per pMad1^CTD dimer) [1]: 1
- stoichiometry N (Cdc20^N per pMad1^CTD homodimer) [2]: 1
- Kd [3]: 28.1 µM
- Kd [4]: 4.8 µM
B1: Cdc20^N (N-terminal truncation of Cdc20, residues 1-73) (domain or fragment, human, UniProt Q12834 1-73, looked up)
chain: MAQFAFESDLHSLLQLDAPIPNAPPARWQRKAKEAAGPAPSPMRAANRSHSAGRTPGRTPGKSSSKVQTTPSK
notes: human Cdc20, residues 1-73; also called Cdc20^1–73; wild-type Cdc20^N; source: E. coli Rosetta 2 (DE3), purified (TALON, TEV cleavage, HisTrap, Resource S, Superdex 75); not shown: His6, N-terminal, cleaved; MBP, N-terminal, cleaved

- binding result [5]: binds
B2: Cdc20^MIM peptide (peptide)
peptide: NLNGFDVEEAKILRLSGKPQNAPEGYQNRLKVLY
notes: source: synthetic peptide (Designer Bioscience, UK)

B3: Mad1^CTD phosphorylated at Thr716 (pMad1^CTD) (domain or fragment, UniProt Q9Y6D9 597-718, looked up)
chain: SSKEVAELKKQVESAELKNQRLKEVFQTKIQEFRKACYTLTGYQIDITTENQYRLTSLYAEHPGDCLIFKATSPSGSKMQLLETEFSHTVGELIEVHLRRQDSIPAFLSSLTLELFSRQTVA
modifications: phosphothreonine at 716 (pThr716)
notes: Mad1 C-terminal domain (Mad1^CTD), residues 597-718; Homodimer; A few peptides phosphorylated at Thr644 were also found; one phosphate per monomer by intact mass; also called Mad1^CTD pT716; Mad1^CTD pThr716
- stoichiometry N [6]: 2

- Bub1CD1 binding of Mad1CTD mutant [7]: disrupted the binding of Bub1^CD1
B4: Mad1^CTD R617E/K619D: Mad1CTD double mutant of the RLK motif (protein)
chain: SSKEVAELKKQVESAELKNQELDEVFQTKIQEFRKACYTLTGYQIDITTENQYRLTSLYAEHPGDCLIFKATSPSGSKMQLLETEFSHTVGELIEVHLRRQDSIPAFLSSLTLELFSRQTVA

B5: Mad1^CTD K619A: Mad1CTD K619A mutant, refs 21, 24 (protein, UniProt Q9Y6D9 597-718, looked up, variant K619A)
chain: SSKEVAELKKQVESAELKNQRLAEVFQTKIQEFRKACYTLTGYQIDITTENQYRLTSLYAEHPGDCLIFKATSPSGSKMQLLETEFSHTVGELIEVHLRRQDSIPAFLSSLTLELFSRQTVA
- checkpoint function [8]: disrupted the checkpoint
- Bub1CD1 binding of Mad1CTD mutant [9]: did not disrupt Bub1^CD1 binding significantly
